{"source": "paper PMC4351431", "about": "“Pharmacokinetics of diluted (U20) insulin aspart compared with standard (U100) in children aged 3–6 years with type 1 diabetes during closed-loop insulin delivery: a randomised clinical trial” (Diabetologia, 2014)", "key": {"[1]": {"settings": "cited from earlier work; for MCR I / ins c: published literature, closed-loop insulin delivery", "excerpt": "Similar estimates of MCR I and ins c were also found in the current study and published literature (1.94 vs 1.68 × 10^−2 vs 1.90 × 10^−2 1/kg/min for MCR I, 29 vs 28 vs 61 pmol/l for ins c). In the present study, MCR I values in the two visits were highly correlated (r = 0.918, p < 0.001), as were the ins c values ..."}, "[2]": {"assay": "Insulin aspart pharmacokinetics during closed-loop insulin delivery, two-compartment modelling of plasma insulin", "design": "species or system human", "settings": "in vivo", "experimental": "Children were admitted in the afternoon on two study visits, 2–6 weeks apart, at the Wellcome Trust Clinical Research Facility, Addenbrooke’s Hospital, Cambridge, to undergo closed-loop insulin delivery from 17:00 hours until 8:00 hours the following morning. On both occasions, the children consumed identical evening meals at 17:00 hours [44 ± 12 g carbohydrate] and optional bedtime snacks [6 ± 7 g carbohydrate]. Standard pump bolus calculators were used to calculate meal insulin boluses and basal rates on the insulin pump (Animas 2020, Johnson & Johnson, PA, USA) were adjusted every 15 min according to the output of a model predictive control algorithm informed by real-time continuous glucose monitoring values (Dexcom G4, Dexcom, CA, USA). Standard strength (100 U/ml) insulin aspart (Novo Nordisk, Bagsvaerd, Denmark) was infused at one visit and diluted aspart (0.9% saline [154 mmol/l NaCl] at 1:5 ratio, 20 U/ml) was administered at the other; the order of the two interventions was random. […]\nVenous blood samples were taken at −30, 0, 30, 60, 90, 120, 180, 240, 300, 360, 420, 480, 540, 600, 660, 720, 780, 840 and 900 min relative to 17:00 hours for measuring the plasma insulin concentration. […] Plasma insulin was measured using an immunochemiluminometric assay (Invitron, Monmouth, UK; intra-assay CV 4.7%, interassay CV 7.2–8.1%; 100% cross reactivity with insulin aspart). Fasting C-peptide levels were measured at plasma glucose values above 6 mmol/l by ELISA (Mercodia, Uppsala, Sweden).\nAspart pharmacokinetics was assessed using a two-compartment model measuring the time-to-peak of plasma insulin concentration (t max), metabolic clearance rate of insulin (MCR I), and background plasma insulin concentration (ins c). […]\nDifferences between pharmacokinetic parameters were assessed by paired t test (for normally distributed variables) or the Wilcoxon signed-rank test (for non-normally distributed variables). […] The Spearman’s rank correlation evaluated correlations between pharmacokinetic and demographic indices. […]"}, "[3]": {"design": "method as in PMID 23278690", "settings": "pig, in vivo, sc; cited from earlier work"}}, "note": "Where two headings read alike, the source gives them in different places."}
{"substance": "B28Asp human insulin [insulin aspart]", "values": [{"measurement": "t max", "setting": "[1]; adults with type 1 diabetes, during closed-loop insulin delivery", "value": 51, "unit": "min"}, {"measurement": "t max", "setting": "[1]; older children with type 1 diabetes, during closed-loop insulin delivery", "value": 66, "unit": "min"}, {"measurement": "MCR I", "setting": "[1]; ref 7", "value": 0.0168, "unit": "kg⁻¹ min⁻¹"}, {"measurement": "ins c", "setting": "[1]; ref 7", "value": 28, "unit": "pmol/L"}, {"measurement": "MCR I", "setting": "[1]; ref 8", "value": 0.019, "unit": "kg⁻¹ min⁻¹"}, {"measurement": "ins c", "setting": "[1]; ref 8", "value": 61, "unit": "pmol/L"}, {"measurement": "t max", "setting": "[1]; type 1 diabetes, following insulin bolus injection", "value": 49, "unit": "min"}, {"measurement": "mean value of t max in the present study", "setting": "[2]; human", "value": 60.4, "unit": "min"}, {"measurement": "MCR I in the current study", "setting": "[2]", "value": 0.0194, "unit": "L/kg/min"}, {"measurement": "ins c in the current study", "setting": "[2]", "value": 29, "unit": "pmol/L"}, {"measurement": "effect of concentration on insulin aspart pharmacokinetics", "setting": "[3]", "value": "no significant difference between U200, U100 and U20"}]}
